Source: paper PMC3287200 (Nucleic Acids Research, 2011)

Columns and labels:
SEC + other: SDS-PAGE = target: the molecule itself; assay: SEC + other: SDS-PAGE
BsHfq (GST removed) = target: T1, BsHfq (GST removed) (Bacillus subtilis, UniProt O31796 1-73); assay: EMSA
T1 sequence: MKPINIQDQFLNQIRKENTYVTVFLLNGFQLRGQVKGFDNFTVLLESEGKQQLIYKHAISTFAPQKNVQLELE

BsHfq-His [1] = target: T2, BsHfq-His (Bacillus subtilis, UniProt O31796 1-73); assay: EMSA
T2 sequence: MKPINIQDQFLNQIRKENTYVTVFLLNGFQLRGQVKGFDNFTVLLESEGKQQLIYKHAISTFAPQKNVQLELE

BsHfq-His [2] = target: T2, BsHfq-His; assay: UV cross-linking
BsHfq-His N40A = target: T3, BsHfq-His N40A (Bacillus subtilis, UniProt O31796 1-73, N40A); assay: EMSA
T3 sequence: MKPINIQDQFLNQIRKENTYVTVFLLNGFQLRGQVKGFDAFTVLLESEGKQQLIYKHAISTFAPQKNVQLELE

BsHfq-His F41A = target: T4, BsHfq-His F41A (Bacillus subtilis, UniProt O31796 1-73, F41A); assay: EMSA
T4 sequence: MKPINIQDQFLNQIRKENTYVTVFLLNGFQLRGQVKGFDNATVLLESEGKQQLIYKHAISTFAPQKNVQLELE

BsHfq-His R32A = target: T5, BsHfq-His R32A (Bacillus subtilis, UniProt O31796 1-73, R32A); assay: EMSA
T5 sequence: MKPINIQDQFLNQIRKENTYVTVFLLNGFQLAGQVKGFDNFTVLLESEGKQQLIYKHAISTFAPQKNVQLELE

BsHfq-His F24A = target: T6, BsHfq-His F24A (Bacillus subtilis, UniProt O31796 1-73, F24A); assay: EMSA
T6 sequence: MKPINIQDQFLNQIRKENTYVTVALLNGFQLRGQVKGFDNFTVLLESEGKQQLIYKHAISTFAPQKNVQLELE

BsHfq-His F29A = target: T7, BsHfq-His F29A (Bacillus subtilis, UniProt O31796 1-73, F29A); assay: EMSA
T7 sequence: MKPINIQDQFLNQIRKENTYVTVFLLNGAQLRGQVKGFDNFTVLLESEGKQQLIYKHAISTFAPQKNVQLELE

BsHfq-His Q30A = target: T8, BsHfq-His Q30A (Bacillus subtilis, UniProt O31796 1-73, Q30A); assay: EMSA
T8 sequence: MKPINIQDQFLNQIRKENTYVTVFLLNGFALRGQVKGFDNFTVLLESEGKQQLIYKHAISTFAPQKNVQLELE

BsHfq-His [3] = target: T2, BsHfq-His; assay: UV cross-linking; remark: listed apart in the source

B1: BsHfq-His H57A (natural protein, Bacillus subtilis)
chain: MKPINIQDQFLNQIRKENTYVTVFLLNGFQLRGQVKGFDNFTVLLESEGKQQLIYKAAISTFAPQKNVQLELE
ability to form hexameric structure, percent of wild-type (SEC + other: SDS-PAGE): ~30 % of wild-type

B2: BsHfq-His K56A (natural protein, Bacillus subtilis)
chain: MKPINIQDQFLNQIRKENTYVTVFLLNGFQLRGQVKGFDNFTVLLESEGKQQLIYAHAISTFAPQKNVQLELE
ability to form hexameric structure, percent of wild-type (SEC + other: SDS-PAGE): ~60 % of wild-type

B3: BsHfq-His F24A (natural protein, Bacillus subtilis)
chain: MKPINIQDQFLNQIRKENTYVTVALLNGFQLRGQVKGFDNFTVLLESEGKQQLIYKHAISTFAPQKNVQLELE
stoichiometry N (SEC + other: SDS-PAGE): 6

B4: BsHfq-His F41A (natural protein, Bacillus subtilis)
chain: MKPINIQDQFLNQIRKENTYVTVFLLNGFQLRGQVKGFDNATVLLESEGKQQLIYKHAISTFAPQKNVQLELE
stoichiometry N (SEC + other: SDS-PAGE): 6

B5: C-terminal 6x His fusion BsHfq, wild type (natural protein, Bacillus subtilis)
chain: MKPINIQDQFLNQIRKENTYVTVFLLNGFQLRGQVKGFDNFTVLLESEGKQQLIYKHAISTFAPQKNVQLELE
stoichiometry N (SEC + other: SDS-PAGE): 6

B6: BsHfq-His Q30A (natural protein, Bacillus subtilis)
chain: MKPINIQDQFLNQIRKENTYVTVFLLNGFALRGQVKGFDNFTVLLESEGKQQLIYKHAISTFAPQKNVQLELE
stoichiometry N (SEC + other: SDS-PAGE): 6

B7: BsHfq-His F29A (natural protein, Bacillus subtilis)
chain: MKPINIQDQFLNQIRKENTYVTVFLLNGAQLRGQVKGFDNFTVLLESEGKQQLIYKHAISTFAPQKNVQLELE
stoichiometry N (SEC + other: SDS-PAGE): 6

B8: BsHfq-His R32A (natural protein, Bacillus subtilis)
chain: MKPINIQDQFLNQIRKENTYVTVFLLNGFQLAGQVKGFDNFTVLLESEGKQQLIYKHAISTFAPQKNVQLELE
stoichiometry N (SEC + other: SDS-PAGE): 6

B9: BsHfq-His N40A (natural protein, Bacillus subtilis)
chain: MKPINIQDQFLNQIRKENTYVTVFLLNGFQLRGQVKGFDAFTVLLESEGKQQLIYKHAISTFAPQKNVQLELE
stoichiometry N (SEC + other: SDS-PAGE): 6

AUUUUUG (ssRNA) [AU5G]
binding result (BsHfq (GST removed)): no binding

B10: 28f (ssRNA)
RNA: GGGACACAAUGGACGAGGGAUUUGGGUGAUAUUUUUAGUCGGUCAUAACGGCCGACAUGAGAG
binding result (BsHfq-His [1]): no binding

GGGCGAAUUCUAGAGAGAGAUUAGAUCCUGUCCGCGGCUAAAGCU (structured_RNA) [49R]
binding result (BsHfq-His [2]): binds | binding result (BsHfq-His N40A): binds | binding result (BsHfq-His F41A): binds | binding result (BsHfq-His R32A): no binding | binding result (BsHfq-His F24A): no binding | binding result (BsHfq-His F29A): no binding | binding result (BsHfq-His Q30A): no binding

GGGCGAAUUCUAGAGAAAGAUUAGAUCCUGUCCGCGGCUAAAGCU (ssRNA) [49R-A]
binding result (BsHfq-His [3]): binds
